Positions count from the first letter of the chain named. Numbers in names are those of the source.
T1: human Fcγ receptor hFcgRIIa (R) (human, UniProt P12318 36-217)
T1 construct: also called FcγRIIa (type R); FcγIIA
T1 chain: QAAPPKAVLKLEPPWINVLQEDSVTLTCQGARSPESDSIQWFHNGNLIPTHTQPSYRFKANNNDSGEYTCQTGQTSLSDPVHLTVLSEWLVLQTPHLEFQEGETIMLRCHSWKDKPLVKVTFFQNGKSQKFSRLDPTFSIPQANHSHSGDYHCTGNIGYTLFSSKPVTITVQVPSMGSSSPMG

T2: human Fcγ receptor hFcgRIIa (H) (human, UniProt P12318 36-217)
T2 construct: also called FcγRIIa (type H); FcγIIA
T2 sequence: T1 chain with R133H

T3: human Fcγ receptor hFcgRIIb (human, UniProt P31994 43-217, limits assumed)
T3 construct: Construct used in the SPR assay is not described; also called FcγRIIb; FcγIIB
T3 sequence: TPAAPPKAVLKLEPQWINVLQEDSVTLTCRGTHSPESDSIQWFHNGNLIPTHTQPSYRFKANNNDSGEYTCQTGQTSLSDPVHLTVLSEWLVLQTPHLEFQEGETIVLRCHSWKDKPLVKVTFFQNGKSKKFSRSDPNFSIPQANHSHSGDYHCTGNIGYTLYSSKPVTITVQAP

B1: TS2 (antibody)
heavy: QVQLQESGPGLVRPSQTLSLTCTVSGYSITSDHAWSWVRQPPGRGLEWIGYISYSGITTYNPSLKSRVTMLRDTSKNQFSLRLSSVTAADTAVYYCARSLARTTAMDYWGQGSLVTVSSASTKGPSVFPLAPSSKSTSGGTAALGCLVKDYFPEPVTVSWNSGALTSGVHTFPAVLQSSGLYSLSSVVTVPSSSLGTQTYICNVNHKPSNTKVDKKVEPKSCDKTHTCPPCPAPELLGGPSVFLFPPKPKDTLMISRTPEVTCVVVDISQDEPEVKFNWYVDGVEVHNAKTKPREEQYNSTYRVVSVLTVLHQDWLNGKEYKCKVSNKALPAPIEKTISKAKGQPREPQVYTLPPSRDELTKNQVSLTCLVKGFYPSDIAVEWESNGQPENNYKTTPPVLDSDGSFFLYSKLTVDKSRWQQGNVFSCSVMHEALHNHYTQKSLSLSP
light: not shown
notes: anti-IL6R IgG1, G1d with V266I/H268Q/E269D/D270E (EU); also called TS02
B2: TS13 (antibody)
heavy: B1 heavy with I268V, S269P, Q270M, D271E, E272F
light: not shown
notes: anti-IL6R IgG1, G1d with S267P/H268M/D270F (EU)
B3: TS7 (antibody)
heavy: B1 heavy with I268V, Q270H, D271E, E272D, S326H, K328S, A332H
light: not shown
notes: anti-IL6R IgG1, G1d with K326S/S324H/A330H (EU); also called TS07
B4: TS37 (antibody)
heavy: QVQLQESGPGLVRPSQTLSLTCTVSGYSITSDHAWSWVRQPPGRGLEWIGYISYSGITTYNPSLKSRVTMLRDTSKNQFSLRLSSVTAADTAVYYCARSLARTTAMDYWGQGSLVTVSSASTKGPSVFPLAPSSKSTSGGTAALGCLVKDYFPEPVTVSWNSGALTSGVHTFPAVLQSSGLYSLSSVVTVPSSSLGTQTYICNVNHKPSNTKVDKKVEPKSCDKTHTCPPCPAPEKRGGPKVFLFPPKPKDTLMISRTPEVTCVVVDVSKEFPEVKFNWYVDGVEVHNAKTKPREEMGNGTYRVVSVLTVLHQDWLNGKEYKCKVSHKALPAPIEKTISKAKGQPREPQVYTLPPSRDELTKNQVSLTCLVKGFYPSDIAVEWESNGQPENNYKTTPPVLDSDGSFFLYSKLTVDKSRWQQGNVFSCSVMHEALHNHYTQKSLSLSP
light: not shown
notes: anti-IL6R IgG1, G1d with L234K/L235R/S239K/H268K/D270F/Q295M/Y296G/S298G/N325H (EU)
B5: TS36 (antibody)
heavy: B4 heavy with H327G
light: not shown
notes: anti-IL6R IgG1, G1d with L234K/L235R/S239K/H268K/D270F/Q295M/Y296G/S298G/N325G (EU)
B6: TS25 (antibody)
heavy: B1 heavy with I268V, Q270H, D271E, E272D, Q297M, K328A, A332H
light: not shown
notes: anti-IL6R IgG1, G1d with Q295M/K326A/A330H (EU)
B7: TS31 (antibody)
heavy: B4 heavy with R237K, K270H, F272D
light: not shown
notes: anti-IL6R IgG1, G1d with L234K/L235K/S239K/Q295M/Y296G/S298G/N325H (EU)
B8: TS40 (antibody)
heavy: B4 heavy with K241S, H327G
light: not shown
notes: anti-IL6R IgG1, G1d with L234K/L235R/H268K/D270F/Q295M/Y296G/S298G/N325G (EU)
B9: TS20 (antibody)
heavy: B1 heavy with I268V, Q270H, D271E, E272D, Q297M, K328S, A332H
light: not shown
notes: anti-IL6R IgG1, G1d with Q295M/K326S/A330H (EU)
B10: TS39 (antibody)
heavy: B4 heavy with K270H, F272D
light: not shown
notes: anti-IL6R IgG1, G1d with L234K/L235R/S239K/Q295M/Y296G/S298G/N325H (EU)
B11: TS24 (antibody)
heavy: B1 heavy with I268V, Q270H, D271E, E272D, Q297M, K328S, A332Y
light: not shown
notes: anti-IL6R IgG1, G1d with Q295M/K326S/A330Y (EU)
B12: TS61 (antibody)
heavy: B1 heavy with I268V, Q270H, D271E, E272D, G387D, Q388P, N391S
light: not shown
notes: anti-IL6R IgG1, G1d with G385D/Q386P/N389S (EU)
B13: TS42 (antibody)
heavy: B4 heavy with K241S, K270H, F272D, H327G
light: not shown
notes: anti-IL6R IgG1, G1d with L234K/L235R/Q295M/Y296G/S298G/N325G (EU)
B14: TS33 (antibody)
heavy: B4 heavy with R237K, K241S
light: not shown
notes: anti-IL6R IgG1, G1d with L234K/L235K/H268K/D270F/Q295M/Y296G/S298G/N325H (EU)
B15: TS34 (antibody)
heavy: B4 heavy with R237K, K241S, K270H, F272D, H327G
light: not shown
notes: anti-IL6R IgG1, G1d with L234K/L235K/Q295M/Y296G/S298G/N325G (EU)
B16: TS30 (antibody)
heavy: B4 heavy with R237K, K270H, F272D, H327G
light: not shown
notes: anti-IL6R IgG1, G1d with L234K/L235K/S239K/Q295M/Y296G/S298G/N325G (EU)
B17: TS32 (antibody)
heavy: B4 heavy with R237K, K241S, H327G
light: not shown
notes: anti-IL6R IgG1, G1d with L234K/L235K/H268K/D270F/Q295M/Y296G/S298G/N325G (EU)
B18: TS22 (antibody)
heavy: B1 heavy with I268V, Q270H, D271E, E272D, Q297L, K328S, A332H
light: not shown
notes: anti-IL6R IgG1, G1d with Q295L/K326S/A330H (EU)
B19: TS43 (antibody)
heavy: B4 heavy with K241S, K270H, F272D
light: not shown
notes: anti-IL6R IgG1, G1d with L234K/L235R/Q295M/Y296G/S298G/N325H (EU)
B20: TS41 (antibody)
heavy: B4 heavy with K241S
light: not shown
notes: anti-IL6R IgG1, G1d with L234K/L235R/H268K/D270F/Q295M/Y296G/S298G/N325H (EU)

target: T4, human Fcγ receptor hFcgRIa (human, UniProt P12314 16-292, limits assumed); assay: SPR, antibody captured on Protein A
T4 construct: Construct used in the SPR assay is not described; also called hFcγRIa; FcγI
Procedure: (§1) The CH2 domain, which was modified in this examination, is known to be involved in interaction with several human Fcγ receptors (hereinafter denoted as hFcgRs) which affect effector functions. Therefore, the binding of TS1 and TS19 prepared by using the H chain of anti-IL6R produced in Example 2 to hFcgRs was measured, according to the method described in Reference Example 3.
(§2) Interactions between antibodies and hFcgRs (hFcgRIa, hFcgRIIa(R), hFcgRIIa(H), hFcgRIIb, hFcgRIIIa(F), and hFcgRIIIa(V)) were analyzed using Biacore T100 (GE Healthcare). HBS-EP+(GE Healthcare) was used for the running buffer, and the measurement temperature was set at 25° C. Protein A (Invitrogen) was immobilized by the amino coupling method, and an antibody of interest was captured thereon. Then, hFcγR solutions diluted using the running buffer were injected to allow interaction with the captured antibody at a flow rate of 30 μL/min for five minutes for hFcγRIa, and at a flow rate of 5 μL/min for one minute for the other hFcγRs. […] Since the hFcγR binding level depends on the amount of captured antibodies, the FcgR-binding levels were corrected so that the capture level of each antibody would be 200 RU (resonance unit) for hFcgRIa and 1000 RU (resonance unit) for the other hFcgRs. The captured antibodies were washed by allowing 10 mM glycine-HCl (pH 1.5) to react for 30 seconds at a flow rate of 30 μL/min to recycle the chip for reuse.

T4 sequence (P12314 16-292 limits assumed): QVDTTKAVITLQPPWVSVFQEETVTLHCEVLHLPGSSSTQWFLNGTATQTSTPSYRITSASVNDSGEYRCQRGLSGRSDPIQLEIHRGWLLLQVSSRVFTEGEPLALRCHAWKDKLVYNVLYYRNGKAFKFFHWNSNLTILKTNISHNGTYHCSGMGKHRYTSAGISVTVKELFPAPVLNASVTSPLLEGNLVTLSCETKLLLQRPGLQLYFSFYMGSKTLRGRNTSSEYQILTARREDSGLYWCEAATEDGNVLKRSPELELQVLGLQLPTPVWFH

Row | Binder | binding relative to G1 (=100)
1 | B1 | 98.3
2 | B2 | 63
3 | B3 | 99.8

Target: T1, human Fcγ receptor hFcgRIIa (R)
Assay: SPR, antibody captured on Protein A
Procedure: as §1, §2

Row | Binder | binding relative to G1 (=100)
4 | B1 | 67.3
5 | B2 | 1.2
6 | B3 | 117

target: T2, human Fcγ receptor hFcgRIIa (H); assay: SPR, antibody captured on Protein A
Procedure: as §1, §2

Row | Binder | binding relative to G1 (=100)
7 | B1 | 123
8 | B2 | 1.2

target: T3, human Fcγ receptor hFcgRIIb; assay: SPR, antibody captured on Protein A
Procedure: as §1, §2

Row | Binder | binding relative to G1 (=100)
9 | B1 | 61.6
10 | B2 | 3.4
11 | B3 | 126

target: T5, human Fcγ receptor hFcgRIIIa (V) (human, UniProt P08637 17-208); assay: SPR, antibody captured on Protein A
T5 construct: also called FcγRIIIa allotype V158; FcγIIIA
Procedure: as §1, §2

T5 sequence (P08637 other isoform, or with tags, fused parts or gaps limits assumed): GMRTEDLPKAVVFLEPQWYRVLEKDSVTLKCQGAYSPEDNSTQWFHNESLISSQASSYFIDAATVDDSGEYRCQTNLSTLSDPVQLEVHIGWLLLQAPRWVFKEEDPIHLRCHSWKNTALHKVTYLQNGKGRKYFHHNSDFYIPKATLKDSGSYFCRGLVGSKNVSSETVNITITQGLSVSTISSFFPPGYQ

Row | Binder | binding relative to G1 (=100)
12 | B1 | 130
13 | B2 | 1.4
14 | B3 | 86.2

target: T4, human Fcγ receptor hFcgRIa; assay: SPR, antibody captured on Protein A; remark: another data set of the same source
Procedure: (§3) Furthermore, binding ability to hFcgRs was measured by the method described in Reference Example 3.
as §2

Row | Binder | binding relative to G1 (=100)
15 | B4 | 0.6
16 | B5 | -0.4
17 | B6 | 105
18 | B7 | 0.2
19 | B8 | -1.8
20 | B9 | 106
21 | B10 | 0
22 | B11 | 107
23 | B12 | 101
24 | B13 | -0.2
25 | B14 | -0.9
26 | B15 | -0.9
27 | B16 | 0.1
28 | B17 | -0.5
29 | B18 | 108
30 | B19 | -0.9
31 | B20 | 0.2

Target: T1, human Fcγ receptor hFcgRIIa (R)
Assay: SPR, antibody captured on Protein A
Remark: another data set of the same source
Procedure: as §3, §2

Row | Binder | binding relative to G1 (=100)
32 | B4 | 0.9
33 | B5 | 1
34 | B6 | 123
35 | B7 | 1.3
36 | B8 | 1.2
37 | B9 | 116
38 | B10 | 1.5
39 | B11 | 107
40 | B12 | 106
41 | B13 | 1.3
42 | B14 | 1.2
43 | B15 | 0.9
44 | B16 | 1.2
45 | B17 | 0.9
46 | B18 | 153
47 | B19 | 1.7
48 | B20 | 1.2

target: T2, human Fcγ receptor hFcgRIIa (H); assay: SPR, antibody captured on Protein A; remark: another data set of the same source
Procedure: as §3, §2

Row | Binder | binding relative to G1 (=100)
49 | B4 | 0.7
50 | B5 | 0.7
51 | B6 | 125
52 | B7 | -0.5
53 | B8 | 0.7
54 | B9 | 132
55 | B10 | 1
56 | B11 | 122
57 | B12 | 106
58 | B13 | 1.6
59 | B14 | 0.7
60 | B15 | 1.4
61 | B16 | 0.2
62 | B17 | 1
63 | B18 | 157
64 | B19 | -0.1
65 | B20 | 1.4

target: T3, human Fcγ receptor hFcgRIIb; assay: SPR, antibody captured on Protein A; remark: another data set of the same source
Procedure: as §3, §2

Row | Binder | binding relative to G1 (=100)
66 | B4 | 4.5
67 | B5 | 4.1
68 | B6 | 137
69 | B7 | 3.6
70 | B8 | 0.3
71 | B9 | 131
72 | B10 | 2.5
73 | B11 | 114
74 | B12 | 112
75 | B13 | 6.9
76 | B14 | 4.6
77 | B15 | 4.2
78 | B16 | 3.8
79 | B17 | 1.5
80 | B18 | 232
81 | B19 | 6.2
82 | B20 | 4.2

target: T5, human Fcγ receptor hFcgRIIIa (V); assay: SPR, antibody captured on Protein A; remark: another data set of the same source
Procedure: as §3, §2

Row | Binder | binding relative to G1 (=100)
83 | B4 | 0.6
84 | B5 | 1.1
85 | B6 | 92.8
86 | B7 | 1.2
87 | B8 | 1
88 | B9 | 91.2
89 | B10 | 0.8
90 | B11 | 121
91 | B12 | 96.6
92 | B13 | 1.3
93 | B14 | 1
94 | B15 | 1.5
95 | B16 | 1.1
96 | B17 | 0.9
97 | B18 | 107
98 | B19 | 1.1
99 | B20 | 1
